The term EC50 (read off the curve) denotes the concentration that produces a half-maximal response. Low values mean greater potency, high ones weaker potency.

For assay [1], the target named is CD3D&E protein (Cat #: CT038-H2508H, Sino Biological) (human) (UniProt P04234). As to the kind of experiment: phage ELISA on CD3D&E protein, detection with HRP anti-M13 antibody. On the technique in general: In an ELISA, binding on a coated surface is turned into a signal by an enzyme label.
Assay [2] deals with BCMA-his protein (Cat #: BCA-H522y, ACRO) (human) (UniProt Q02223). The assay is described as follows: phage ELISA on BCMA-his protein, detection with HRP anti-M13 antibody.
Sequence of BCMA-his protein (Cat #: BCA-H522y, ACRO) (human) (Q02223 1-54 limits assumed): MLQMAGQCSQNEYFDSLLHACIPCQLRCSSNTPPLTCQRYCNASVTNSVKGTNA

Sequence of CD3D&E protein (Cat #: CT038-H2508H, Sino Biological) (human) (P04234 22-105, chain 1 of 2): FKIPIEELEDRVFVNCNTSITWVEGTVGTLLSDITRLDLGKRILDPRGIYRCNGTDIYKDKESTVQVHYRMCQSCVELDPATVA
Sequence of CD3D&E protein (Cat #: CT038-H2508H, Sino Biological) (human) (P07766 23-126, chain 2 of 2, further chain): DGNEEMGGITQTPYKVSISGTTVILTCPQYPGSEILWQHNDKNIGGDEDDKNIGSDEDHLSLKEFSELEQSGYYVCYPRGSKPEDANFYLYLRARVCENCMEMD

B1: anti-CD3D&E antibody D1E9 scFv displayed on phage (scFv, part only; not given: scFv linker, phage coat fusion, V domains shown, not shown: another chain or arm of the molecule; large carriers; small tags and cut ends)
VH: EVQLVESGGGLVQPGRSLRLSCAASGFTFDDFAMHWVRQAPGKGLEWVSGITWNSGSVGYADSVKGRFTISRDNAKKSLYLQMNSLRAEDTALYYCAKDRSGYGHYYYGMDVWGQGTTVTVAS
VL: EIVMTQSPATLSVSPGERATLSCRASTSVSHNVAWYQQKPGQAPRLLIYGASTKVTGIPARFSGSGSGTEFTLTISSLQSEDFAVYYCQHYINWPLTFGGGTKVEIK
In turn, B1 came in with an EC50 (read off the curve) in assay [1] of 20 µg/mL.

B2: anti-CD3D&E antibody 7-1A12 scFv displayed on phage (scFv, part only; not given: scFv linker, part only)
scFv, part: EVQLVESGGGLVQPGRSLRLSCAASGFTFSDYTMHWVRQAPGKGLEWVSGISWNTGTIGYADSVKGRFTISRDNAKKSLYLQMNSLRAEDTALYYCAKDNSGYGHYYFGMDVWGQGTTVTVASEIVMTQSPATLSVSPGERATLSCRASQSVSRNVAWYQQKPGQAPRLLIYGASTRQTGIPARFSGSGSGTEFTLTISSLQSEDFAVYYCQSYINWPLQFGGGTKVEIK
The molecule B2 showed an EC50 (read off the curve) in assay [1] of 4 µg/mL.

B3: anti-BCMA antibody A6-3 scFv displayed on phage (scFv, part only; not given: scFv linker, phage coat fusion, V domains shown, not shown: another chain or arm of the molecule; large carriers; small tags and cut ends)
VH: QVQLVQSGAEVKKPGASVKVSCKASGYTFTNHIIHWVRQAPGQGLEWMGYINPYPGYHGYNDKFSGRATMTSDTSTSTVYMELSSLRSEDTAVYYCARDGYYRDQDVLDYWGQGTLVTVSS
VL: DIQMTQSPSSLSASVGDRVTITCKASQDISQYLNWYQQKPGKAPKLLIYYTSGLHPGVPSRFSGSGSGTDFTFTISSLEPEDIATYYCQQGYALPWTFGQGTKVEIK
As to B3, the EC50 (read off the curve) in assay [2] was 1 µg/mL.

The values above are taken from patent publication US20230348630A1.
